According to PMC4838890, “Dynamic and flexible H3K9me3 bridging via HP1β dimerization establishes a plastic state of condensed chromatin” (Nature Communications, 2016):
Like-named read-outs stand apart in the source and are kept apart here.

Experiments:
H3K9me3 peptide = biological target: T1, H3K9me3 peptide (Homo sapiens, UniProt P68431); assay: ITC, H3K9me3 peptide; assay type: binding; details: for Kd / N (stoichiometry of interaction): ITC; for Kd: 10 mM triethanolamine pH 7.5, 0.1 mM EDTA, 25°C, read-out: Kd (apparent dissociation constant); for N (stoichiometry of interaction): pH 7.5, 25°C
T1 construct: C-terminally biotinylated histone H3 peptides (aa 1–20)
Protocol: ITC measurements were performed on a iTC200 calorimeter (Microcal, Malvern, UK) at 25°C in binding buffer (10 mM triethanolamine (pH 7.5), 20 or 150 mM NaCl, 0.1 mM EDTA). Reaction heats were recorded by sequences of 37 injections of 1.8 mM hHP1β, spaced at 120 s intervals, into 250 μl of 60 μM H3 peptides, nucleosomes or oligonucleosomal arrays under constant stirring at 1,000 r.p.m. (injection #1–10: 0.5 μl each; injection #11–32: 1 μl each; injection #33–37: 2 μl each). Heats of dilution, obtained by the titration of hHP1β into buffer, were substracted from raw data before analysis. Raw data were integrated, normalized and the apparent heat change (Δq) of the reaction was plotted against the molecular ratio using the Origin software. For the determination of apparent enthalpy changes (ΔHapp), the molar association constant (KA), and the stoichiometry (n) of the interaction, non-linear least-square fitting of the Δq values was performed by the Origin software using a binding model of one set of identical binding sites.
Figure S4 Hiragami-Hamada et al. […]
Supplementary Figure 4: Quantitative analysis of interaction of hHP1β with H3K9me3-peptides and
(a) ITC measurements of H3K9me3-peptide/hHP1β WT interaction at 20 mM NaCl (left) and 150 mM
NaCl (right). Upper panels, raw data of heat release upon stepwise injection of recombinant protein into
solution of peptide; lower panels, plots of integrated heats of protein injections vs. molar ratio of hHP1β
WT per peptide calculated by MicroCal software. Injections #1-10: 0.5 µl; injections #11-32: 1 µ l; […]

H3K9me3 oligonucleosomes = assay: Chromatin sedimentation (clustering), H3K9me3 oligonucleosomes; assay type: biochemical, Xenopus laevis; details: for chromatin clustering/aggregation, H3K9me3: saturating protein (5 μM) or titration, EtBr fluorescence, n=3
Protocol: Figure 3 hHP1β clusters oligonuclesomal arrays in dependence of H3K9me3. (a) Oligonucleosomes (2.5 nM) were incubated with increasing concentrations of hHP1β WT or I161A at 150 mM NaCl. DNA remaining in the supernatant after centrifugation was incubated with EtBr and measured by fluorescence reading. Data were normalized to amounts in absence of added protein. Averages of three independent experiments are plotted; error bars represent s.d.; n=3. (b) Analysis of the hydrodynamic radius of oligonucleosomes (10 nM; DNA labelled with ATTO 610) in the presence of increasing concentrations of hHP1β WT or I161A by FCS at 150 mM NaCl. For details on experimental setup see Supplementary Fig. 3. Error bars represent s.d.; n=3. (c) Oligonucleosomes were reconstituted after mixing H3K9me0 and H3K9me3 octamers at different ratio. Chromatin precipitation analysis at 150 mM NaCl was carried out with hHP1β WT at saturating concentration. Data are presented as in a. (d) Precipitation behaviour of oligonucleosomes (2.5 nM) was analysed at different concentrations of NaCl with hHP1β WT at saturating concentration. Data are presented as in a. (e) H3K9me3-containing chromatin was reconstituted using wild-type core histones or tailless H2A, H2B or H4. Oligonucleosomes (2.5 nM) were incubated with increasing concentrations of hHP1β WT at 150 mM NaCl. Data are presented as in a. (f) Chromatin coprecipitation of hHP1β with H3K9me3-containing oligonucleosomes reconstituted with wild-type or tailless core histones at the indicated concentrations of MgCl2. Precipitated material was analysed by western blotting. The region of the western blot membrane of the experiment at 7.5 mM MgCl2 containing histones was stained with Ponceau. (g) Oligonucleosomes at 50 mM NaCl were incubated with hHP1β WT or I161A. Complexes were fixed with 0.05% (v/v) glutaraldehyde, spotted on mica surfaces and analysed by scanning force microscopy. Control, no protein added; scale bar, 100 nm. (h) Quantification of results representatively shown in g according to the classification on the top: A, extended; B, partially condensed; C, fully condensed; D; aggregates; n>50 for each condition.
For saturating conditions, 2.7 nM oligonucleosomes were incubated with 5 μM hHP1β proteins in 100 μl sedimentation buffer (10 mM triethanolamine (pH 7.5), 150 mM NaCl, 0.1 mM EDTA) for 1 h on ice. For non-saturating conditions, 3 μM recombinant proteins were used and the NaCl concentration in the sedimentation buffer was lowered to 100 mM. After incubation, 40 μl per sample was placed into a well of a 96-well plate and kept as ‘input'. The rest was centrifuged at 16,100g for 30 min at 4°C. 40 μl supernatant was carefully removed and placed into a 96-well plate (‘output'). For quantification of chromatin DNA, the input and output samples were incubated with 40 μl 0.5 μg ml^−1 ethidium bromide and fluorescence was measured on a Plate CHAMELEON II fluorescence plate reader (Hidex, Turku, Finland) using a 360 nm (±5 nm) excitation filter and a 612 nm (±5 nm) emission filter. For each sample the ratio of DNA concentrations after and before centrifugation (output/input) was calculated.
Supplementary Table 1: Summary of conditions used in the different experiments of this study. experiment result modification template Temp. [NaCl] [MgCl2] […]
chromatin Fig. 1e,f; Fig. S1f-h; H3K9me3 oligo- 4 150 5 coprecipitation Fig. S2b nucleosomes
Fig. S7d,f; Fig.S9c nucleosomes […]
chromatin sedimentation Fig. 4a; H3K9me3 oligo- 4 150 0
(single point) Fig. S3b nucleosomes […]
chromatin sedimentation. oligo-(titration) Fig. 3a H3K9me3 nucleosomes 4 150 0 […]
crosslinking Fig. S6e,f nucleosomes […]
crosslinking Fig. S7a,b nucleosomes
EMSA Fig. 1g; Fig. 5c; n//a RT 100 5
1Preincubation of oligonucleosomes and h HP1β was performed at 4 °C . Measurements wer e carried out at the in dicated te mperature.
2in increments o f 0 .5 mM
3MgCl2 was added at the end of incubation to coprecipitate oligonucleosomes a nd bound hHP1β.

Row | Substance | Kd (H3K9me3 peptide; 20 mM NaCl) | N (stoichiometry of interaction) (H3K9me3 peptide; 20 mM NaCl) | Kd (H3K9me3 peptide; 150 mM NaCl) | N (stoichiometry of interaction) (H3K9me3 peptide; 150 mM NaCl) | binding to H3K9me3 peptide relative to WT (H3K9me3 peptide; Table 1) | chromatin clustering/aggregation, H3K9me3 (H3K9me3 oligonucleosomes; 150 mM NaCl) | chromatin clustering/aggregation, H3K9me3 (H3K9me3 oligonucleosomes; 150 mM NaCl, listed as I161A) | concentration sufficient for maximal chromatin clustering (H3K9me3 oligonucleosomes; 150 mM NaCl) | EC50 (H3K9me3 oligonucleosomes; 150 mM NaCl, 4°C, read-out: half-maximal effect, chromatin precipitation assay) | salt concentration above which hHP1β induces clustering (H3K9me3 oligonucleosomes; salt titration, saturating hHP1β WT, 2.5 nM oligonucleosomes) | reversibility of aggregation (H3K9me3 oligonucleosomes; stepwise precipitation and resolubilization)
1 | hHP1β I161A: CSD point mutant of hHP1β incapable of dimerization | 1100 ± 500 nM | 1.0±0.1 | 3400 ± 200 nM | 0.9±0.0 | bound an H3K9me3-peptide as efficiently as hHP1β wild type | failed to induce the aggregation of oligonucleosomes | neither the I161A mutant, nor the isolated CD or CSD had any effect on modified or unmodified chromatin |  |  |  | 
2 | hHP1β WT: recombinant human heterochromatin protein 1β (GenBank NM_001127228), 185 aa | 1400 ± 600 nM | 0.9±0.0 | 3300 ± 200 nM | 1.0±0.0 |  | efficiently aggregated H3K9me3 |  | 5 µM | 400 nM | above 50 mM NaCl | generally reversible
